Substrate: [O-][Cl+]O
Test: purified protein
Conditions: 25 °C, pH 7.0

| Protein | Km | kcat |
| --- | --- | --- |
| NdCld (Nitrospira defluvii) (protein) ADREKLLTESGVYGTFATFQMDHDWWDLPGESRVISVAEVKGLVEQWSGKILVESYLLRGLSDHADLMFRVHARTLSDTQQFLSAFMGTRLGRHLTSGGLLHGVSKKPTYVAGFPESMKTELQVNGESGSRPYAIVIPIKKDAEWWALDQEARTALMQEHTQAALPYLKTVKRKLYHSTGLDDVDFITYFETERLEDFHNLVRALQQVKEFRHNRRFGHPTLLGTMSPLDEILEKFAQ | 58 ± 9 µM | 35 ± 5 s⁻¹ |
| NwCld (Nitrobacter winogradskyi Nb-255) (protein) MTFTVFTGGDSGAWSILSVAPVIGESLMAASHLAIAPSLSLGDTSATTPWQLRGVASHARYVERAEKIALTSVQAGLGRNEATRAALIPIRKSAAWWEMTQDERRAIFEDKSHHIAASLKYLPAIARQLYHCRDIGEPFDFLTWFEYAPEHATMFEDLVGVLRATEEWTYVEREVDIRLARAI | 90 ± 12 µM | 190 ± 14 s⁻¹ |

Reference: article PMC3787751
